Substitutions are numbered along the chain they refer to.
Biological target: T1, mouse CD8 (on mouse CD8+ T cells) (mouse, UniProt P01731 28-247; P10300 22-213)
T1 construct: whole, on cells
Test: flow cytometry on mouse splenocytes, anti-hFc MFI
Procedure: Fresh splenocytes were incubated with the indicated antibodies for 2 hours at 4° C. The cells were then stained with antibodies against CD3, CD4, CD8 and anti-hFc. anti-hFc was used to measure the binding of CD8-IL2 fusion containing hFc. Cells were washed and analyzed by flow cytometry.
The binding affinity of anti-mouse CD8 antibodies was determined through flow cytometry analysis. […] The xCD8ab2.1 clone is derived from xCD8ab2 by introduction of mutations N95A (VH) and D92A (VK). After incubation with the anti-mouse CD8 antibody, the cells were then stained with antibodies against CD3, CD4, CD8 and anti-hFc (HP6017, Biolegend), the latter of which was used to measure the binding of CD8-IL2 fusion containing hFc. Stained cells were washed and analyzed by flow cytometry and mean fluorescence intensity (MFI) of staining with anti-hFc was used to denote binding.

B1: xmCD8ab2 (published clone YTS156.7.7) (antibody, V domains shown)
VH: EVKLQESGPSLVQPSQTLSLTCSVSGFSLISDSVHWVRQPPGKGLEWMGGIWADGSTDYNSALKSRLSISRDTSKSQGFLKMNSLQTDDTAIYFCTSNRESYYFDYWGQGTMVTVSS
VL: DIQMTQSPASLSASLGDKVTITCQASQNIDKYIAWYQQKPGKAPRQLIHYTSTLVSGTPSRFSGSGSGRDYSFSISSVESEDIASYYCLQYDTLYTFGAGTKLELK
notes: Carries a human Fc; also called xCD8ab2
binding result: binds

B2: xmCD8ab2.1 (antibody, V domains shown)
VH: B1 VH with N98A
VL: B1 VL with D92A
notes: Carries a human Fc; also called xCD8ab2.1
binding result: binds
